We go through four molecules from publication PMC8528956 (Frontiers in Immunology, 2021).

B1: FI6 IgG, stem-directed (antibody, V domains shown)
VH: QVQLVESGGGVVQPGRSLRLSCAASGFTFSTYAMHWVRQAPGKGLEWVAVISYDANYKYYADSVKGRFTISRDNSKNTLYLQMNSLRAEDTAVYYCAKDSQLRSLLYFEWLSQGYFDYWGQGTLVTVSS
VL: not shown
notes: source: 293F suspension cells, transient, purified from supernatants (Protein G); copies: 2 + 2
B2: 8H10 IgG (humanized constant domains), directed to the HA trimer interface (antibody, V domains shown)
VH: EVQLQESGEGLVKPGGSLKLSCAASGFTFSNYDMSWVRQTPEKRLEWVAYISSGGDYIYYADTVKGRFTISRDNARNTLYLQMSSLKSEDTAMYYCTRNYYYGSLPVWFAYWGQGTLVTVSG
VL: QAVVTQESALTTSPGETVTLTCRSSTGAVTTSNYANWVQEKPDHLFTGLIGGTNNRAPGVPARFSGSLIGDKAALTITGAQTEDEAIYFCALWYSNHSWVFGGGTKLTVL
notes: as for B1
B3: HC19 IgG (humanized constant domains), RBS-directed (antibody, V domains shown)
VH: QVQLKESGPGLVAPSQSLSITCTVSGFLLISNGVHWVRQPPGKGLEWLGVIWAGGNTNYNSALMSRVSISKDNSKSQVFLKMKSLQTDDTAMYYCARDFYDYDVFYYAMDYWGQGTSVTVSS
VL: QAVVTQESALTTSPGETVTLTCRSSTGAVTTSNYANWVQEKPDHLFTGLIGGTNNRAPGVPARFSGSLIGDKAALTITGAQTEDEAIYFCALWYSNHWVFGGGTKLTVL
notes: as for B1
B4: HC45 IgG (humanized constant domains), directed to the vestigial esterase domain (antibody, V domains shown)
VH: QVQLQQPGAELVRPGASVKLSCKASGYTLTTYWMNWFKQRPDQGLEWIGRIDPYDSETHYNQKFKDKAILTVDRSSSTAYMQLSSLTSEDSAVYYCTRFLQITTIIYGMDYWGQGTSVTVSS
VL: DVVMTQTPLSLPVSLGDQASISCRSSQTLVHSNGNTYLHWYLQKPGQSPKLLIYKVSNRFSGVPDRFSGSGSGTDFTLKISRVEAEDLGVYFCSQNTHVPYTFGGGTKLEIK
notes: as for B1

This assay addresses wild-type H3 A/Hong Kong/1/1968 hemagglutinin, recombinant full-length soluble ectodomain (Influenza A virus A/Hong Kong/1/1968 …, UniProt Q91MA7). Description: ELISA. Particulars: both partners purified.
Consider B1, for which the binding result is recorded as “binds”.

As for B2, the binding result is on record as “binds”.

With B3, the binding result was “binds”.

B4: the binding result is given as “binds”.
